For series [1], the target named is T1, MBP-OsWRKY76 (Oryza sativa (rice), UniProt Q6EPZ2 1-327).
T1 sequence: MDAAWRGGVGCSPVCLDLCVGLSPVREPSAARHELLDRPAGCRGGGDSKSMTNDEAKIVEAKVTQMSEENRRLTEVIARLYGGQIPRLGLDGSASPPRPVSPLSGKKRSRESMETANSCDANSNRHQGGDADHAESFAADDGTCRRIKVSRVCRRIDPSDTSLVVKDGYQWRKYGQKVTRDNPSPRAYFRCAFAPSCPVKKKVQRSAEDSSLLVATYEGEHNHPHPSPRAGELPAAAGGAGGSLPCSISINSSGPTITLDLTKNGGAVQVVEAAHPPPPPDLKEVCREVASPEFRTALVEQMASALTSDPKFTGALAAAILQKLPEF
Put plainly: competition; excess unlabelled mWB vs DIG-WB; DIG Gel Shift Kit 2nd generation (Roche); buffer, salt, pH and temperature not stated. Particulars: protein: recombinant; tags: MBP (N-terminal, pMALc2x). For orientation: In EMSA bound probe runs differently from free probe, usually more slowly.

In series [2] the target is T1, MBP-OsWRKY76. The experiment in a line: EMSA; DIG Gel Shift Kit 2nd generation (Roche); buffer, salt, pH and temperature not stated. Particulars: protein: recombinant; tags: MBP (N-terminal, pMALc2x); label: DIG.
For series [3], the target named is T1, MBP-OsWRKY76. Put plainly: competition; excess unlabelled WB vs DIG-WB; DIG Gel Shift Kit 2nd generation (Roche); buffer, salt, pH and temperature not stated. Particulars: protein: recombinant; tags: MBP (N-terminal, pMALc2x).

The values below come from publication PMC3830488, “WRKY76 is a rice transcriptional repressor playing opposite roles in blast disease resistance and cold stress tolerance”.

B1: mWB unlabelled competitor (dsDNA)
DNA 1: AACTTTGAACAATCTTTCAAGTA
DNA 2: TACTTGAAAGATTGTTCAAAGTT
On to B1, for which the binding result with MBP-OsWRKY76 [1] is “no binding”.

B2: WB (W-box probe) (dsDNA)
DNA 1: AACTTTGACCAATCTTTCAAGTA
DNA 2: TACTTGAAAGATTGGTCAAAGTT
With B2, the binding result with MBP-OsWRKY76 [2] is reported as “binds”.

B3: mWB (mutated W-box probe) (dsDNA)
DNA 1: AACTTTGAACAATCTTTCAAGTA
DNA 2: TACTTGAAAGATTGTTCAAAGTT
In the case of B3, the binding result in the series with MBP-OsWRKY76 [2] was “no binding”.

B4: WB unlabelled competitor (dsDNA)
DNA 1: AACTTTGACCAATCTTTCAAGTA
DNA 2: TACTTGAAAGATTGGTCAAAGTT
As for B4, the binding result in the series with MBP-OsWRKY76 [3] is recorded as “binds”.
